Key:
[1] = molecular target: T1, CD36 (Homo sapiens, UniProt P16671); test: IL-8 in conditioned medium (ELISA) of CD36-expressing HEK293 cells after 20 hours incubation with CD36 ligands; assay type: cell-based; conditions: CD36-expressing HEK293 cells; increasing ligand concentrations; 20 hours (FIG. 8)
T1 construct: expressed in transfected cells; host or cells: HEK293
Method: (§1) Following 20 hours incubation of wild-type (WT) and CD36-expressing (CD36+) HEK293 cells with increasing concentrations of CD36 ligands, the IL-8 levels were determined in conditioned medium by ELISA.
Following 20 hours incubation of CD36-expressing cells with the indicated amounts of the ligands, the IL-8 levels were determined in conditioned medium.
(§2) To study this, the applicant conducted cell culture experiments using wildtype (WT) and CD36+ expressing (CD36+) HEK293 cells, treated with increasing amounts of CD36 ligands. Specifically, the ligands tested were the PAMP lipopolysaccharide (LPS) and the DAMPs high mobility group box 1 protein (HMGB1), Histone H3B, and heat shock protein 60 (HSP60). […] Similarly to HSP60, it is presumed that HSP70 and HSP90 also cause inflammation mediated by the CD36 receptor, and which may be alleviated by the disclosed peptides.
Additionally, the applicant studied the effects of the above-referenced SAHP L37pA as an inhibitor of CD36-dependent, PAMP/DAMP-induced pro-inflammatory response. See FIGS. 9(a)-9(c) To study this, the applicant conducted cell culture experiments using CD36+ HEK293 cells, treated with increasing amounts of CD36 ligands. […] As controls, no treatment, L37pA alone, and L3D alone were administered.
As controls, no treatment, L37pA alone, and L3D alone were administered. […]

[2] = system: wild-type (WT) HEK293 cells; test: IL-8 in conditioned medium (ELISA) of wild-type HEK293 cells after 20 hours incubation with CD36 ligands; assay type: cell-based; conditions: wildtype HEK293 cells; increasing ligand concentrations; 20 hours (FIG. 8)
Method: as §1, §2

T1 sequence (P16671 whole entry): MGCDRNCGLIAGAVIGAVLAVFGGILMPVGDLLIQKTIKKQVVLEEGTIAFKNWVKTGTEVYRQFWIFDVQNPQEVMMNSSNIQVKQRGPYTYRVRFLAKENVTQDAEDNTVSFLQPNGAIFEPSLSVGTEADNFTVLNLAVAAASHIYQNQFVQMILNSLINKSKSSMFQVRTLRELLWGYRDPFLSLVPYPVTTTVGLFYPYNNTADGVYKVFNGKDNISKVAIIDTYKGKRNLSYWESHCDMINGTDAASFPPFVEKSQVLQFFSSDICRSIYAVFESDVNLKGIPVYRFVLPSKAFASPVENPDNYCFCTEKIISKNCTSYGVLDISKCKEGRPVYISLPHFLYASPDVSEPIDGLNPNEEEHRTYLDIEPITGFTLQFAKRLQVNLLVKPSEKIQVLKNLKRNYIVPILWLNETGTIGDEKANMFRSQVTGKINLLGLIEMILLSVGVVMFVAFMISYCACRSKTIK

B1: heat shock protein 60 (protein, UniProt P10809 27-573, looked up)
60 kDa heat shock protein, …: AKDVKFGADARALMLQGVDLLADAVAVTMGPKGRTVIIEQSWGSPKVTKDGVTVAKSIDLKDKYKNIGAKLVQDVANNTNEEAGDGTTTATVLARSIAKEGFEKISKGANPVEIRRGVMLAVDAVIAELKKQSKPVTTPEEIAQVATISANGDKEIGNIISDAMKKVGRKGVITVKDGKTLNDELEIIEGMKFDRGYISPYFINTSKGQKCEFQDAYVLLSEKKISSIQSIVPALEIANAHRKPLVIIAEDVDGEALSTLVLNRLKVGLQVVAVKAPGFGDNRKNQLKDMAIATGGAVFGEEGLTLNLEDVQPHDLGKVGEVIVTKDDAMLLKGKGDKAQIEKRIQEIIEQLDVTTSEYEKEKLNERLAKLSDGVAVLKVGGTSDVEVNEKKDRVTDALNATRAAVEEGIVLGGGCALLRCIPALDSLTPANEDQKIGIEIIKRTLKIPAMTIAKNAGVEGSLIVEKIMQSSSEVGYDAMAGDFVNMVEKGIIDPTKVVRTALLDAAGVASLLTTAEVVVTEIPKEEKDPGMGAMGGMGGGMGGGMF
notes: DAMP, CD36 ligand
Question: With B1 as the molecule, how does the “IL-8 produced by cells treated with the ligand” value [1] read?
Answer: Its value is “significant amount of IL-8”.

Question: And the “IL-8 produced by cells treated with the ligand” value [2]?
Answer: Its value is “minimal amount of interleukin 8”.

From patent US20250066452A1, “SYNTHETIC AMPHIPATHIC HELICAL PEPTIDES AND TREATMENT METHODS USING SYNTHETIC AMPHIPATHIC HELICAL PEPTIDES” (UNIVERSITY OF MARYLAND, BALTIMORE, priority 2022, published 2025)
